Consider one molecule from paper PMC9995077 (Science Advances, 2023).

For assay [1], the target named is Ino80-FLAG (endogenously expressed FLAG-tagged Ino80) (S. cerevisiae (endogenous in yeast …, UniProt P53115 1-1489)). Briefly: co-IP.
The next assay addresses Ino80-K929R-FLAG (S. cerevisiae, UniProt P53115 1-1489, K929R). Put plainly: co-IP.

Sequence of Ino80-FLAG (endogenously expressed FLAG-tagged Ino80) (S. cerevisiae (P53115 whole entry): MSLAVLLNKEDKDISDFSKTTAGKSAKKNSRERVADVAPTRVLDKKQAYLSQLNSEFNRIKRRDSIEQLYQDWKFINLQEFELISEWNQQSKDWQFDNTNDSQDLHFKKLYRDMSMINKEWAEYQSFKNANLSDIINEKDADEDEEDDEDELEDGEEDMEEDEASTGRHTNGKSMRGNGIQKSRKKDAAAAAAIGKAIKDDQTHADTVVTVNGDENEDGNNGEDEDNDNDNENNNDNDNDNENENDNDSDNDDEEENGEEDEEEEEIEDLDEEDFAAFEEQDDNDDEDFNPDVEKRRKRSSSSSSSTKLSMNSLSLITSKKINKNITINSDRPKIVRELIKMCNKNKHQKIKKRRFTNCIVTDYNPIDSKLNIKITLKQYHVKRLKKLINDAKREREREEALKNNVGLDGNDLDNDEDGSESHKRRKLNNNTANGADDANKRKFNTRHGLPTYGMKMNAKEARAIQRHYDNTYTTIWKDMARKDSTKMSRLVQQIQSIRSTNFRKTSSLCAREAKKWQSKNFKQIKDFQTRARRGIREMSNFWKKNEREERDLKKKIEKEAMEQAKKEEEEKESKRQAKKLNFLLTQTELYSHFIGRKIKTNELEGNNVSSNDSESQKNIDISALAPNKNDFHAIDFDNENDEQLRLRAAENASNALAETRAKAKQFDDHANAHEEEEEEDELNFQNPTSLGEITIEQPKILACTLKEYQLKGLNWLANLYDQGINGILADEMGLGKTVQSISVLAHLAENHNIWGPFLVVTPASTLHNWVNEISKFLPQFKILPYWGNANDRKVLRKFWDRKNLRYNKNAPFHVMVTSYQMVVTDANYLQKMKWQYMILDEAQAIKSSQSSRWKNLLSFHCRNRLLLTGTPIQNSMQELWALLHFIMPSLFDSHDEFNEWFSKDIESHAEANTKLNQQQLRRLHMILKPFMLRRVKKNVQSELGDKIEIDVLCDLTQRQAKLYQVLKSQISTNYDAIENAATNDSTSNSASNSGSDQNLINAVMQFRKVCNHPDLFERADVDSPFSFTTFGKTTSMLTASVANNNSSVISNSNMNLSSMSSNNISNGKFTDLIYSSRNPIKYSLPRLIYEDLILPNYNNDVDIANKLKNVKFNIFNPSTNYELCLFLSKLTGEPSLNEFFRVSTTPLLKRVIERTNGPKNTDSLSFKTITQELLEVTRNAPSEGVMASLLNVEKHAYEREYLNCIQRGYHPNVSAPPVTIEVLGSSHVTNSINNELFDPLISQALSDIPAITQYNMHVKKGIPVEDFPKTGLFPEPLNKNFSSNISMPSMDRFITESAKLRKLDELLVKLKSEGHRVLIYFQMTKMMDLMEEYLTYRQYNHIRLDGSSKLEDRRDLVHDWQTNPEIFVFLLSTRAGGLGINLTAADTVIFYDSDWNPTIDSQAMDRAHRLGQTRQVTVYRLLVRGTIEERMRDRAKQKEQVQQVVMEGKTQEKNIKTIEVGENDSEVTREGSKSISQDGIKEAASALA
Sequence of Ino80-K929R-FLAG (P53115 whole entry K929R): as the sequence (P53115 whole entry) above, with K929R counted along it

B1: Atg11-CBP (tandem affinity-purified Atg11) (natural protein)
chain: MADADEYSTAPTQQEITPLQTTATIINAISGECITTNVDFFVSLDKFKQFIARKWKIPPDQLLILLPYGNKLKPSMFKELLINRSFTLNDFYVYDRRLFSLVSKPTPTNLLTSKDSNPMNSPNSNDLTETLEYLIKNSHISQYQGSDTIMIKPMPSPLEDADVDLSRLNYHSVTSLLTTNLGWLSALEIDVHYFKSLIPDIIAHIKRIFDGLTVCSQYLKLYCFDVESLYNSNVQFLNQLVDNGMTSKWEKCFNDTLSKLTALEGDSLQKFINIESLLENEKSVKILNHSINGKLNKIKREIDENASFRDIITVNIDRLRQMFTPNESKFELEDQMAESFEVLVSEMRTRSRNVLDKEEEEFNSQEFLKSMNVMLEKDKKESVKTLFTISQALYSQIGELIDLKKSLQKHAVAILGNIAFTQMEILGIKRLLLNECNKDLELYKKYEVEFAQVEDLPLIYGLYLIEKYRRLSWFQQILSFISNFNQDLELFKQNELRTRNKWVKNFGSIATVFCEDLLSSSDFKRLNEYHSHTSPPNEDEEDENENSIANYRQDLVKVSQAIDNYMTQIKETDVSEPIIDLLSKTLFETKRFHIIYSNFKNNNNNSSNGNSISPEGSIALKSDDVVKGYKTRIKKLESLLHEFQYSDIGHWPQGVLNTHLKPFRGSATSINKKKFLGASVLLEPANISEVNIDSVSQANNHQIQELESNVDDLLHQLQLLKEENNRKSMQISEMGKKISDLEVEKTAYRETLTNLNQELARLTNEEQSHRTEIFTLNASFKKQLNDIISQDNEKIEKLTGDYDDVSKSRERLQMDLDESNKKHEQEVNLLKADIERLGKQIVTSEKSYAETNSSSMEKGEKFETIPLAEDPGRENQISAYTQTLQDRIFDIISTNIFILENIGLLLTFDNNNNIQIRRVKGLKKGTAQSNILDESTQMLDAHDNSLIKSPVFQKLKDEYELIKSVANGSEKDTQQSIFLGNITQLYDNKLYEVAVIRRFKDIETLAKKLTKENKIKRTLLERFQREKVTLRNFQIGDLALFLPTRENVNSVGSMSSSTSSLSSSFSSVDLSTPPPLDAMSIQSSPSVIHSNVINQASISGRDKNKLMRPWAAFTAFEESTRYFLKDEKGLTKGKEWFVGRIVTLEHFVADSPSNNPFRLPKGSVWFQVTAVVVSYQGV
B1: the binding result (in assay [1]; in the assay with Ino80-K929R-FLAG) was “binds” throughout.
